Measurements from the nanobody polyreactivity screen of Harvey et al. (2022).

Assay: yeast display, Sf9 membrane polyspecificity reagent, FACS + sequencing; frameworks hold sequencing errors
Procedure, shortened: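 Synthetic nanobody libraries on Saccharomyces cerevisiae BJ5465 were galactose-induced for 36–48 hours, stained 1 hour at 4 °C with 10% biotinylated, detergent-solubilized Sf9 membrane reagent and enriched on streptavidin microbeads. FACS then separated cells into low and high (top ~1%) gates by anti-HA (expression) and streptavidin (reagent binding) fluorescence. Genes were colony-PCR amplified, MiSeq 2 × 250 sequenced and CDR-length filtered. A clone's polyreactivity label is that of its gate of origin.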

Sequence	polyreactivity (PSR sort gate)
QVQLVESGGGLVQAGGSLRLSCAASGFIFTDYAMGWYRQAPGKEREFVAAIDWSGGNTYYADSVKGRFTISRDNAKNTVFLQMNSLKPEDSAVYYCAASGSAREYDYWGQGTQVTVSS	low polyreactivity
QVQLVESGGGLVQAGGSLRISCAASGSTFWGYAMGWYRQAPGKERELVATINQSAGSTYYADSVKGRFTISRDNAKNTVYLQMNSLKPEDTAVYYCAAEARVQFSYDYWGQGTQVTVSS	low polyreactivity
QVQLVESGGGLVQAGGSLRLSCAASGLTFSYYAMGWYRQAPGKERELVAASSWSGGSTYYADSVKGRFTISRDNAKNTVYLQMNSLKPDDTAVYYCAKYPNRHYWYDYWGQGTQVTVSS	low polyreactivity
QVQLVESGGGLVQAGGSLRLSCAASGLIFESNAMGWYRQAPGKGRELVAAITTNGGSTYYADSVKGRFTISRDKGKNTVYLQMNSLKPEDTAVYYCAARFSYRSYDYWGQGTQVTVSS	low polyreactivity
QVQLVESGGGIVQAGGSLRLSCAASGYTFRGNVMGWYRQAPGKERELVAAISRSGGSTYYADSVKGRFTISRDNAKNTVYLQMYCLKPADTAVHYCAKKPTSTYQQDSPRWSDYWGQGTQVTVSS	high polyreactivity
QVQLQESVGGLVQAGGSLRLSCAATGTIFTDRFMGWYRQAPGKERELVAGISQGTSTNYADSVKGRFTISRDNAKNTVYLQMNSLKPEDTAVYYCAADLSTGNTLPYWGQGTQVTVSS	high polyreactivity
QVQLVESGGGLVQAGGSLRLSCAASGLTFGYYAMGWYRQAPGKERELVAAITGGGGSTYYADSVKGRFTISRDNAKNTVYLQMNSLKPEDTAVYYCAKAVYFRRKGHWYQMEYWGQGTQVTVSS	low polyreactivity
QVQLVESGGGLVQAGGSLRLSCAASGSIFYFNTMAWYRQAPGKERELVAVISRRGGSTYYADSVKRRFTISRDNAKNTVYLQMNSLKPEDTAVYYCNAEVFDLWRSFLSPYEYWGQGTQVTVSS	low polyreactivity
QVQLVESGGGLVQAGGSLRLSCAASGRIDAYTMGWYRQAPGKERELVAAISTSTSNTYYADSVKGRFTISRDNAKNTVYLQMNSLKPEDTAVYYCDEAYYSPWWGYYWGQGTQVTVSS	low polyreactivity
QVQLVESGGGLVQAGGSLRLSCAASGLIFGRNAMGWYRQAPGKERELVAAITSGGSTYYADSVKGRFTISRDNAKNTVYLQMNSLKPEDTAVYYCAADVVDLYLLDYWGQGTQVTVSS	low polyreactivity
QVHLVESGGGLVQAGGSLRLSCAASGIIFDHYAMVWYRPAPGKERELVAAISTGGGNTYYADSLKGRFTISRDNAKNTVYLQMNSLKPEDTAVYYCNADVLWGRRWGDYYGYDYWGQGTQVTVSS	low polyreactivity
QVQLVESGGGLVQAGGSLRLSCAASGTIFQQYAMGWYRQAPGKERELVAAISYSGGTTYYADSVKGRFTISRDNAKNTVYLQMNSLKPEYTSVYYCAAYYPSGSYDYYWGQGTQVTVSS	low polyreactivity
QVQLVESGGGLVQAGGSLRLSCAASGIIFYDYAMGWYRQAPGKERELVAAITSNGDNTYYADSVKGRFTISRDNAKNTVYLPMNSLKPEDTAVYYCAVDGSFAADFDNYLEEYGYWGQGTQVTVSS	low polyreactivity
QVQLVESGGGLVQAGGSLRLSCAASGFTFDRYANGWYRQAPWKAWELVAAITRRGGSTYYADSVKGRFTISRDNAKKTVYLQMNSLKPEDTAVYYCNARTYVTVDYDYCGQGTQVTVSS	high polyreactivity
QVQLVESGGGLVQAGGSLRLSCASSGSTFWPNAMGWYRQAPGKERELVAAITGGGGTNYADSVKGRFTISRDNAKNTVYLQMNSLKPEDTAVYYCAAKKVNSRSHVKYYYWGQGTQVTVSS	high polyreactivity
QVQLVESGGGVVQAGGSLRVRCAASGIIYFIDYAMGWYRQAPGKERELVAAITSGGSTNYADSVKGRFTISRDNAKYTVYLQKNRLKPEDTAVYYCAAYLYSGSQYYFWGQGTQVIVSS	high polyreactivity
QVQLVESGGGLVQAGGSLRLSCAASGRIFSSYDMGWYRQAPGKERELDAAISSRTGITNYADSVKGRFTISRDNAKNTVYLQMNSLKPEDTAVYYCAKVGWYGYTRSYKYGYWGQGTQVTVSS	high polyreactivity
QAQLQESGGSLVQAGGGLRLSCAASGYISVGSVMGWYRQAPSKERELVASIDQGANTNYADSVKGRFTISRNNAKNNVYLQMNSLKTEDTAVYYCATETTYILNYCGQGTQVTVSS	low polyreactivity
QVQLEESGGGLVQAGGSLRLSCAASGCTLTDYAMGWYIQAPGKERELVAAISSVGSTNYADSVKGRFTISRDNAKNTVYLQMNSLKPEDTAVYYCAVDYGRAVQGDSITYDFNYWGQGTQVNVSS	low polyreactivity
QVQLEDSGGGLVQAGGSLGLSCAASGITFSVYDMGWYRQAPGKERQLVAAISWSGGSTYYADSVKGRFTISRDNAKNTVFLQMNSLKPDDTAVYYCAAEVDYWYELYDYWGLGTQVTVSS	high polyreactivity
QVQLVESVGVLVQAGGSLPLSCAASGFTFQQYAMGWYRQAPGKERELVAAISWSGGSTNYADSVKGRFTISRDNAKNTVYLQMNSMKPEDTAVYYCAAYLRYYRKEVGYSSMNYWGQGTQVTVSS	high polyreactivity
QVQLVESGGVLVQAGGSLRLSCAASGSLFTRYAMGGYRQAPGKVRELVAAISKSGTTTYYADSVKGRFTISRDNAKNTVYLQMNSLIPEDTAVYYCAAVPIAGKMDYWGQGTQVTVSS	high polyreactivity

Sequence	polyreactivity (PSR sort gate)
QVQLVESGGGLVQAGGSLRLSCAASGFTLFGYAMGWYRPAPGKERELVAAITRSGGSTFYADSVKGRFTISRDNAKNTVYLQMNSLKPEDTAVYYCAAVRSKLYYYWGQGTQVTVSS	high polyreactivity
QVQLVESGGGLVQAGGSLRLSCAASGSIFPGYAMGWYRQAPGKERELVATITWSGGSTYYADSVKGRFTISRDNAKNTVYLQMNSLKPEDTAVYYCAADGVDRYLRTISYLYGYWGQGTQVTVSS	low polyreactivity
QVQLVESGGGLVQAGGSLRLSCAASGSIFVWYAMGWYRQAPGKERELVAAISSSGDNTYYADSVKGRFTISRDNAKNTVYLQMNSLKPEDTAVYYCAAKSYWGQGTQVTVSS	high polyreactivity
QVQLVESGGGLVQAGGSLRLSCAASGSIFDYNAMGWYRQAPGKERELVAAISSGGSTYYADSVKGRFTISRDNAKNTVYLQMNSLKPEDTEVYYCAVKVWLVIQFDYWGQGTPVTVSS	low polyreactivity
QVQLVESGGGLVQAGGSLRLSCAASGRTFRIYAMGWYRQAPGKERELVAAISRSSTSTYYADSVKGRFTISRDNAKNTVYLQMNSLKPEDTAVYYCAAVVTVQYSQPYDHWGQGTQVTVSS	high polyreactivity
QVQLVESGGGLVQAGGSLRLSCAASGFTFSYYAMGWYRQAPGKERELVAAISFNGGRTYYADSVKGRFTISRDNAKNTVYLQMISLKPEDTAVYYCAARSLRPETLGDYWGQGTQVTVSS	high polyreactivity
QVQLVESGGGLLKAGGSLRLSCAASGRIFDIYNMGWYRPAPGKERELVAAISSSGGRTYYADSVKGRFTISRDNAKTTVYLQMKSVKPEDTAVYYGAARPSKYVGSRGYDYWGQGTQVTVSS	high polyreactivity
QVQLVESVGGLVQAGGSLRLSCAASGSNFGSYAMGWYRQAPGKERSTYYADSVKGRFTISRDNAKNTVYLQMNSLKPEDTAVYYCAADTYGYQGSAGGHWGQGTQVTVSS	low polyreactivity
QVQLVESGGGLVQAGGSLSLSCAASGRIIKFYAMGWYRQAPGKERELVARISRSGGRTYYSDSVKGRFTISRDNAKNTVYLQMNSLKPEDPAVYYCNADGDNRRDRYEYWGQGTQVTVSS	low polyreactivity
QVQLVESGGGLVQAGGSLRLSCAASGSTFRRYAMGWYRQAPGKERELVAGISKRGVSTYYADSVKGRFTISRDNAKNTVYLQMNSLKPEDTAVYYCAAEWTVSKYDYWGQGTQVTVSS	low polyreactivity
QVQLVESGGGLGQAGGSLRLSCAASGSIFWGNAMGWYRQAPGKESELVACIRNSGTSTYYADSVKWRFTISRDNAKNTVYLKMNSLKPVDTAVYYCAAADGRQYSRYYWRGHDYWGQGTQVTVSS	low polyreactivity
QVQLVESGGGLVQAGGSLRLSCAASGSTFRKYAMGWYRQAPGTEREFVAAITWSTGTTYYADSVKGRFTISRDNAKNTVYLQMNSLKPEDTAVYYCAADSQPPHELYESIEHESWGQGTQVTVSS	low polyreactivity
QVQLLESGGGLVQAGGSLRLSCAASGITFQLYAMGWYRQAPGKEREFVAAINGRSGRTYYADSVKGRFTISRDNAKNTVYLHMNSLKPEDTAVYYCAKTSNGYGSGLPMYYWGQGTQVTVSS	high polyreactivity
QVQLVESGGGLVQAGGSLRLSCAASGSTFIGYDMGWYRQAPGKERELVAAISYSDGTYYADSVKGRFTISRDNAKNTVYLQMNSLKPEDTAVYYCAAVSLYYRYDYWGQGTQVTVSS	low polyreactivity
QVQLVESGGGLVQAGGSLRLSCAASGSIISGYAMGWYRQAPGKERELVASISSSGGRTYYAYSVKGRYTISRDNAKNTVYLPRNSLKPEDTAVYYCNVKSYTYGYLPYDYWGQGTQVTVSS	high polyreactivity
QVQLLESGGGLVQAGGSLRLSCAASGFIFDESAKGRYRQAPGKERQLVAAISWSGSRTYYADSVKGRFTISRDNAKNTVYLQMNSLKPEDTAVYYCAKVTGVGAGRRNYWGQGTQVTVSS	low polyreactivity
QVQLVESGGGLVQAGGSLRLSCAASGFIFRRYAMGWYRQAPGKERELVAAISWSGGSTYYADSVKGRFTISRDNAKNTVYLQMNSLKPEDTAVYYCAKVPTSASPYDHWGQGTQVTVSS	high polyreactivity
QVQLVESGGGLVQAGGSLRLSCAASGLTFYTYAMGWYRQAPGKERELVAAISTNGGSTYYADSVKGRFTISRDNAKNTVYLQMNSLKPEDTAVYYCAKEGGTYRIFNYWGQGTQVTVSS	low polyreactivity
QVQLVESGGGLVQAGGSLRLSCAASGRTFWDYGMGWYRQAPGKERELVATISGNGGDTYYADSVKGRFTISRDNAKNTVYLQMNSLKPEDTAVYYCAAAWPSTGLLYVLGYSGYGYWGQGTQVTVSS	low polyreactivity
QVQLVESGGGLVQAGGSLRLSCAASGLIFSEYAMGWYRQAPGKERELDAAIRSDGGSTYYADSVKGRFTISRDNAKNTVYLQMNSLKPEDTAVYYCNDRHRSQTRTAMNYWGQGTIVTVSS	high polyreactivity
QVQLVESGGGLVQAGGSLRLSCAASGSTFDTYAMGWYRQAPGKERELGAAISWSVDSTYYADSVKGRFTISRDNAKNTVYLQMNSLKPEDTAVYYCATVGYGYDYWGQGTQVTVSS	high polyreactivity
